Measurements as given in article PMC6825360, “Chaetomella raphigera β-glucosidase D2-BGL has intriguing structural features and a high substrate affinity that renders it an efficient cellulase supplement for lignocellulosic biomass hydrolysis” (Biotechnology for Biofuels, 2019).
Values belong to the molecule of their own block, whether it stands above or below them.

Legend:
D2-BGL [1] = target: T1, D2-BGL (Chaetomella raphigera, UniProt A0A068FT77); assay: inhibition of pNPG hydrolysis at […] glucose, absorbance of pNP at […] nm, non-linear fit; type: biochemical; details: read-out: Ki glucose; substrate pNPG; pH 5 (50 mM sodium acetate), 55 °C; product inhibition
T1 construct: secreted recombinant from Pichia pastoris SMD1168 (pGAPZalphaC), His-tagged (strain #5 has an extra N-terminal 6-His), IMAC purified, N-hyperglycosylated, smear 95-180 kDa; TIM barrel 1-307, alpha/beta sandwich 319-521, FnIII 573-712
T1 sequence (A0A068FT77 1-722): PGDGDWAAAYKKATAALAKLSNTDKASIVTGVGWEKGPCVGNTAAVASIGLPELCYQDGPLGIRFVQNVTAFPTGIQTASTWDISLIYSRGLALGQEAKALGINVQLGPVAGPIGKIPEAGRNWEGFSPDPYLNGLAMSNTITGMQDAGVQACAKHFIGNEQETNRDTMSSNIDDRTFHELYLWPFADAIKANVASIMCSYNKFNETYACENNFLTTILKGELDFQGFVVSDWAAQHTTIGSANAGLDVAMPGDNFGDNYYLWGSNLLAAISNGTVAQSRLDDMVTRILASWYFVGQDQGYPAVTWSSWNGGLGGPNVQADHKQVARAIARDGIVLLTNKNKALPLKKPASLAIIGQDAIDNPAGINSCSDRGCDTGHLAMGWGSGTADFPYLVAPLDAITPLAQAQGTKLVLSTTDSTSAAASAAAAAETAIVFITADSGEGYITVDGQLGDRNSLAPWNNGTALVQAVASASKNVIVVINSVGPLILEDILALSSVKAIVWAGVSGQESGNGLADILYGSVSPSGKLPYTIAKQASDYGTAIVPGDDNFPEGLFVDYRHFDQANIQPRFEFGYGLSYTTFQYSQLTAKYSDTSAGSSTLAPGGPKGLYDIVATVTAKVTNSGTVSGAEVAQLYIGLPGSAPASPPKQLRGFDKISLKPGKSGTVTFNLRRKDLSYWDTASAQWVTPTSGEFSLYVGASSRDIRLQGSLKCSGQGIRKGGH

D2-BGL [2] = target: D2-BGL (Chaetomella raphigera, UniProt A0A068FT77, INS255S/N255I, form not given); assay: cellobiase assay, glucose release, crude secreted enzyme; type: biochemical; details: crude enzyme from P. pastoris culture; mutant N255* (N255 replaced by two residues I-S); wild type measured beside it 1.45 mM
[3] = cellobiase assay after non-denaturing deglycosylation; details: glycan lost; control: non-deglycosylated enzyme
purified protein = substrate: O=[N+]([O-])c1ccc(O[C@@H]2O[C@H](CO)[C@@H](O)[C@H](O)[C@H]2O)cc1; assay: purified protein; details: pH 5 (50 mM sodium acetate), 55 °C, 10 min
[4] = specific activity of purified enzyme; details: glycan lost; control: wild type
[5] = productivity from culture supernatant activity, P. pastoris; details: glycan lost; control: wild type

Ki (D2-BGL [1]): 2420 ± 690 µM
Molecule: OC[C@H]1OC(O)[C@H](O)[C@@H](O)[C@@H]1O (stereo partly drawn) [glucose]

Km (D2-BGL [2]): 2840 µM
Molecule: OC[C@H]1O[C@@H](O[C@H]2[C@H](O)[C@@H](O)C(O)O[C@@H]2CO)[C@H](O)[C@@H](O)[C@@H]1O (stereo partly drawn) [cellobiose]

B1: β-glucosidase D2-BGL: Endo H (protein)
parent chain: T1 sequence (A0A068FT77 1-722)
enzymatic_activity, other: specific activity [3]: no change, 185 ± 21 vs 209 ± 14

B2: D2-BGL (Chaetomella raphigera) (protein)
chain: T1 sequence (A0A068FT77 1-722)
Km (purified protein): 200 ± 100 µM
Vmax (purified protein): 419 µmol/min/mg

B3: β-glucosidase D2-BGL: N68Q (protein)
parent chain: T1 sequence (A0A068FT77 1-722)
enzymatic_activity, other: specific activity [4]: no change, 216 ± 23 vs 197 ± 3
expression_or_secretion, other: productivity [5]: decreases, 4.5 vs 9.6, N68Q mutant (0.98 ± 0.22 U/mL) ... relative to that of wild-type (1.89 ± 0.18 U/mL)

B4: β-glucosidase D2-BGL: T431A (protein)
parent chain: T1 sequence (A0A068FT77 1-722)
enzymatic_activity, other: specific activity [4]: no change, 189 ± 11 vs 197 ± 3
expression_or_secretion, other: productivity [5]: decreases, 3.2 vs 9.6, T431A mutant (0.61 ± 0.05 U/mL)
